Measured values taken from patent publication US20190352402A1 (NANJING LEADS BIOLABS, published 2019).
Read-outs that look alike come from different tables or passages of the source.

Tests used:
[1] = target: T1, Human PD-1 (prepared in Leadsbiolabs, amino acid sequence of NP_005009.2 set forth in SEQ ID NO.: 66) (human, UniProt Q15116 25-170, limits assumed); assay: blocking ELISA, human PD-1 coated, blocked ligand human PD-L1-mouse Fc-tag
[2] = target: T1, Human PD-1 (prepared in Leadsbiolabs, …); assay: as above; remark: listed apart in the source
[3] = target: T1, Human PD-1 (prepared in Leadsbiolabs, …); assay: as above; remark: listed apart in the source
[4] = target: T1, Human PD-1 (prepared in Leadsbiolabs, …); assay: as above; remark: listed apart in the source
[5] = target: T2, human PD-1 of SEQ ID NO.: 66 stably expressed on transfected cells (CHO-K1-PD-1 cells; Jurkat-NFAT-PD1 cells) (human, UniProt Q15116 25-288); assay: flow cytometry on CHO-K1 cells stably expressing human PD-1, MFI
T2 construct: also called cell surface PD-1; PD-1 expressed on CHO-K1-PD-1 cells
T2 sequence (Q15116 25-288 limits assumed): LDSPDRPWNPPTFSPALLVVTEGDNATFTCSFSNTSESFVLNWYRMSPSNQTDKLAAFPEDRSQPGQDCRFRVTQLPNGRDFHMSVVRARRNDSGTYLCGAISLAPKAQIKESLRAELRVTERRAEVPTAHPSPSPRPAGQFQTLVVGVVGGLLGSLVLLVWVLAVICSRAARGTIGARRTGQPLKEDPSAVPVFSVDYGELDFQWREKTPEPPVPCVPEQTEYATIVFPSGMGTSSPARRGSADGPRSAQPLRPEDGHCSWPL

[6] = target: T3, Human PD-1 protein (SINO Biological Inc., Cat#10377-H08H-100) (human, UniProt Q15116 25-167); assay: ELISA, human PD-1 coated at 25 ng/well, detection with anti-human F(ab')2-HRP
T3 construct: Bought protein
T3 sequence (Q15116 25-167 limits assumed): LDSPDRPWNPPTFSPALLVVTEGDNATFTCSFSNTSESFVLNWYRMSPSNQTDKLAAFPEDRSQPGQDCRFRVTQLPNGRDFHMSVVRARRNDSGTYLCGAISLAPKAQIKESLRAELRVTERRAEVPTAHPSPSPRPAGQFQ

[7] = target: T3, Human PD-1 protein (SINO Biological …); assay: as above; remark: listed apart in the source
[8] = target: T1, Human PD-1 (prepared in Leadsbiolabs, …); assay: blocking ELISA, human PD-1 coated, blocked ligand human PD-L1-mouse Fc-tag; x axis printed as log values -1 to 2
[9] = target: T3, Human PD-1 protein (SINO Biological …); assay: ELISA, human PD-1 coated at 25 ng/well, detection with anti-human F(ab')2-HRP; remark: listed apart in the source
[10] = target: T3, Human PD-1 protein (SINO Biological …); assay: as above; remark: listed apart in the source
[11] = target: T4, cynomolgus PD-1-his protein (Acrobiosystems, Cat# PD1-05223) (cynomolgus monkey, UniProt B0LAJ3 25-170); assay: ELISA, cynomolgus PD-1 coated at 25 ng/well
T4 construct: also called cynoPD-1-his; cynomolgus PD-1 protein
T4 sequence (B0LAJ3 entry or part of it limits assumed): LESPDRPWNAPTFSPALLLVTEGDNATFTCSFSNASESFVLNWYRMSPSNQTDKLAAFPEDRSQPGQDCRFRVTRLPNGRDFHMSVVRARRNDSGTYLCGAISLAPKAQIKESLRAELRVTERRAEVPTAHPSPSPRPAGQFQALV

[12] = target: T1, Human PD-1 (prepared in Leadsbiolabs, …); assay: blocking ELISA, human PD-1 coated, blocked ligand human PD-L1-mouse Fc-tag; fit value printed in the table although the control's curve does not fall (see non_binding)
[13] = target: T3, Human PD-1 protein (SINO Biological …); assay: ELISA, human PD-1 coated at 25 ng/well
[14] = target: T5, Human ICOS (Acrobiosystems, Cat# ICS-H5250) (human, UniProt Q9Y6W8 21-140, limits assumed); assay: ELISA, human ICOS coated at 25 ng/well
T5 sequence (looked up): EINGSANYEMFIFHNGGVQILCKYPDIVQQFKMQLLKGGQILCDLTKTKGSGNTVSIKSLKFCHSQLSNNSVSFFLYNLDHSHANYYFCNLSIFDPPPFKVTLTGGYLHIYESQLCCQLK

[15] = target: T6, human BTLA (Acrobiosystems, Cat# BTA-H52E0) (human, UniProt Q7Z6A9 31-150, limits assumed); assay: ELISA, human BTLA coated at 25 ng/well
T6 sequence (looked up): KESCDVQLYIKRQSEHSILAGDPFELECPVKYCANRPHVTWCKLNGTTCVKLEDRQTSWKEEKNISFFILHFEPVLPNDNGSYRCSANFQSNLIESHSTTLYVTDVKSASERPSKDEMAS

[16] = target: T7, human CTLA-4 (Acrobiosystems, Cat# CT4-H5229) (human, UniProt P16410 36-161); assay: ELISA, human CTLA-4 coated at 25 ng/well
T7 sequence (looked up): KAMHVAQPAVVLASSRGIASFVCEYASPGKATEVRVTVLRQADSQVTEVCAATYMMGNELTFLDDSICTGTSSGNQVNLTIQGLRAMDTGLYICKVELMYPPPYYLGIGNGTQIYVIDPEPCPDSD

[17] = target: T8, mouse PD-1 protein (SINO Biological Inc., Cat#50124-M08H) (mouse, UniProt Q02242 25-167); assay: ELISA, mouse PD-1 coated at 25 ng/well
T8 sequence (looked up): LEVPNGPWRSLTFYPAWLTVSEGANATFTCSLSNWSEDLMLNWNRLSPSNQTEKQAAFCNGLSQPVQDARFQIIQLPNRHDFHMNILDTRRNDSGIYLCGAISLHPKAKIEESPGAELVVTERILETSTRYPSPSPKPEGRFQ

[18] = target: T9, cynomolgus PD-1 expressed on stimulated cynomolgus PBMCs (cynomolgus monkey, UniProt B0LAJ3 25-288); assay: flow cytometry on cynomolgus PBMCs after SEB stimulation, MFI
T9 construct: also called monkey PD-1; PD-1 expressed on cynomolgus monkey PBMCs
T9 sequence (B0LAJ3 entry or part of it limits assumed): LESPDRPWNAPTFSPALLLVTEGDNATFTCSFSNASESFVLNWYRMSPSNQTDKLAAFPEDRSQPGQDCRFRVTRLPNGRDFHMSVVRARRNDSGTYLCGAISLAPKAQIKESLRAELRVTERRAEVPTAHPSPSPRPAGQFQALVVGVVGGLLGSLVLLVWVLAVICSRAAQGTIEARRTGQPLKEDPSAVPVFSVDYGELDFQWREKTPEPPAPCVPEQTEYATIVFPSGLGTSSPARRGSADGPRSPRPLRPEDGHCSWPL

[19] = target: Human FcγRI (Acrobiosystems, Cat# FCA-H52H2) (human, UniProt P12314 16-288); assay: ELISA, human FcγRI coated, detection with anti-human F(ab')2-HRP
Chain of Human FcγRI (Acrobiosystems, Cat# FCA-H52H2) (P12314 16-288 limits assumed): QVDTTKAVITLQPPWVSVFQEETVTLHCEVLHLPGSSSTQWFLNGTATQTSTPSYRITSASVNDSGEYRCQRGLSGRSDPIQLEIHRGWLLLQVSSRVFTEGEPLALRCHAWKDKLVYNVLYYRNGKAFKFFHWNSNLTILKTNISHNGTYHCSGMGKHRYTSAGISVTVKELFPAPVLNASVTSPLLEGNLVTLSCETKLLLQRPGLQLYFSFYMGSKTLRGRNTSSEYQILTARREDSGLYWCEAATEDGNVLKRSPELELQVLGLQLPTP

T1 sequence (Q15116 25-170 limits assumed): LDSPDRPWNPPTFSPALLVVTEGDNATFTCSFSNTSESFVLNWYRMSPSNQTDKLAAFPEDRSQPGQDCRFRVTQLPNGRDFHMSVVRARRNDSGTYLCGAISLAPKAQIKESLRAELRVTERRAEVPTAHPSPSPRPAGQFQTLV

B1: anti-PD-1 antibody 21F12 (mutant IgG1 constant region of SEQ ID NO: 18) (antibody, V domains shown)
VH: QMQLVQSGAEVKKPGASVKLSCKASGYIFTSYYIHWVRQAPGQGLEWVGVINPSGGSTTYAQKFQGRVTMTRDTSISTAYMELSRLRSDDTVVYYCARGSYSSGWDYYYYYGMDVWGKGTLVTVSS
VL: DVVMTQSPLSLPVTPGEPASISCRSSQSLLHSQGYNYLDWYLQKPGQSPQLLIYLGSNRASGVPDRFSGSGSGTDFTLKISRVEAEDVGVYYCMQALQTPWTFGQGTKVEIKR
notes: Full length IgG expressed in CHO-S cells
With B1 the IC50 [1] was 0.716 nM, the IC50 [2] was 0.834 nM and the IC50 [3] was 0.913 nM. It also gave an IC50 [4] of 0.684 nM, an EC50 [5] of 1.06 nM and an EC50 [6] of 0.0447 nM.

B2: anti-PD-1 antibody 21F12-1B12 (mutant IgG1 constant region of SEQ ID NO: 18) (antibody, V domains shown)
VH: QMQLVQSGAEVKKPGASVKLSCKASGYPFQSYYIHWVRQAPGQGLEWVGVINPSGGSTTYAQKFQGRVTMTRDTSISTAYMELSRLRSDDTVVYYCARGSYSSGWDYYYYYGMDVWGKGTLVTVSS
VL: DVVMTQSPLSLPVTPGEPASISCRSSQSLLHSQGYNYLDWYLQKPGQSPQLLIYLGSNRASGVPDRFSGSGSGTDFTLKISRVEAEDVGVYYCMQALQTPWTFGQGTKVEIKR
notes: mutant IgG1
With B2 the IC50 [3] was 0.623 nM, the EC50 [7] was 0.102 nM and the IC50 [8] was 0.725 nM. For the same binder, the EC50 [5] was 0.257 nM and the EC50 [9] was 0.0936 nM.

B3: anti-PD-1 antibody 21F12-1C4 (mutant IgG1 constant region of SEQ ID NO: 18) (antibody, V domains shown)
VH: QMQLVQSGAEVKKPGASVKLSCKASDYIFTSYYIHWVRQAPGQGLEWVGVINPSGGSTTYAQKFQGRVTMTRDTSISTAYMELSRLRSDDTVVYYCARGSYSSGWDYYYYYGMDVWGKGTLVTVSS
VL: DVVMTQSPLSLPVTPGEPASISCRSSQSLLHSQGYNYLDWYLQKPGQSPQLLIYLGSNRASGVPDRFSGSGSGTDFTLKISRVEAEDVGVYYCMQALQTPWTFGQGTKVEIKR
notes: mutant IgG1
B3 was tested, and the IC50 [1] was 0.558 nM and the EC50 [5] was 0.479 nM.

B4: anti-PD-1 antibody 21F12-1E10 (mutant IgG1 constant region of SEQ ID NO: 18) (antibody, V domains shown)
VH: QMQLVQSGAEVKKPGASVKLSCKASGYPFTSYYIHWVRQAPGQGLEWVGVINPSGGSTTYAQKFQGRVTMTRDTSISTAYMELSRLRSDDTVVYYCARGSYSSGWDYYYYYGMDVWGKGTLVTVSS
VL: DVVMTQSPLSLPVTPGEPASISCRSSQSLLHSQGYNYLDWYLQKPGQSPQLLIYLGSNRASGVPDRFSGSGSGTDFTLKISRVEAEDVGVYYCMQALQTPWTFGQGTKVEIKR
notes: mutant IgG1
Binder B4 has an IC50 [4] of 0.482 nM, an EC50 [10] of 0.111 nM and an EC50 [5] of 0.464 nM.

B5: anti-PD-1 antibody 21F12-1E11 (mutant IgG1 constant region of SEQ ID NO: 18) (antibody, V domains shown)
VH: QMQLVQSGAEVKKPGASVKLSCKASGYFFQSYYIHWVRQAPGQGLEWVGVINPSGGSTTYAQKFQGRVTMTRDTSISTAYMELSRLRSDDTVVYYCARGSYSSGWDYYYYYGMDVWGKGTLVTVSS
VL: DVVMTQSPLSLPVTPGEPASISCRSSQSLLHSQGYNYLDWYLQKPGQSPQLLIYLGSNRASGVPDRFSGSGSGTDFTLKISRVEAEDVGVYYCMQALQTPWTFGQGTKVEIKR
notes: mutant IgG1
With B5 the IC50 [3] was 0.653 nM, the EC50 [7] was 0.0936 nM and the EC50 [10] was 0.0914 nM.

B6: anti-PD-1 antibody 21F12-2E1 (mutant IgG1 constant region of SEQ ID NO: 18) (antibody, V domains shown)
VH: QMQLVQSGAEVKKPGASVKLSCKASEYIFQSYYIHWVRQAPGQGLEWVGVINPSGGSTTYAQKFQGRVTMTRDTSISTAYMELSRLRSDDTVVYYCARGSYSSGWDYYYYYGMDVWGKGTLVTVSS
VL: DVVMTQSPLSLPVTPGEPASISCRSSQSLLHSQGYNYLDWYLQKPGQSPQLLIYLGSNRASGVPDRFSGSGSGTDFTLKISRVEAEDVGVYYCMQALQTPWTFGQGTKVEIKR
notes: mutant IgG1
For B6, the IC50 [3] was 1.1 nM and the EC50 [7] was 0.136 nM.

B7: anti-PD-1 antibody 21F12-2H7 (mutant IgG1 constant region of SEQ ID NO: 18) (antibody, V domains shown)
VH: QMQLVQSGAEVKKPGASVKLSCKASQYIFQSYYIHWVRQAPGQGLEWVGVINPSGGSTTYAQKFQGRVTMTRDTSISTAYMELSRLRSDDTVVYYCARGSYSSGWDYYYYYGMDVWGKGTLVTVSS
VL: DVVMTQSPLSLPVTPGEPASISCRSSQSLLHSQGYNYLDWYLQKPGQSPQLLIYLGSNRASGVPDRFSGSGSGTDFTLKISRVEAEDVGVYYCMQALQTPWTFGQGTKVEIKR
notes: mutant IgG1
B7 was tested, and the IC50 [3] was 1.15 nM and the EC50 [7] was 0.101 nM.

B8: anti-PD-1 antibody 21F12-3G1 (mutant IgG1 constant region of SEQ ID NO: 18) (antibody, V domains shown)
VH: QMQLVQSGAEVKKPGASVKLSCKASGYIFTSYYIHWVRQAPGQGLEWVGVINPSGGSTTYAQKFQGRVTMTRDTSISTAYMELSRLRSDDTVVYYCARGSYNSGWDYYYYYGMDVWGKGTLVTVSS
VL: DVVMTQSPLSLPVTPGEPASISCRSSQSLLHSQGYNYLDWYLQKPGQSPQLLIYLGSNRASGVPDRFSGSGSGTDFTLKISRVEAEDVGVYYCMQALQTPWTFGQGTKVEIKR
notes: mutant IgG1
Binder B8 has an IC50 [2] of 0.699 nM, an EC50 [10] of 0.108 nM and an EC50 [5] of 0.334 nM.

B9: IgG Control (antibody, V domains shown)
VH: QVQLQESGGGVVRPGGSLRLSCAASGFTFDDYGMSWVRQAPGKGLEWVSGINWSGGSTYYADSVKGRSTISRDNSKNTLYLQMNSLRAEDTAVYYCATGGYWGQGTLVTVSS
VL: not shown
notes: also called human IgG control
In the case of B9, the binding result [11] is reported as “no binding (tested: about 2 nM)”, the IC50 [12] is reported as 3.77 nM and the binding result [13] is reported as “no binding (tested: about 2 nM)”.

B10: Nivolumab analog (antibody, human IgG4 S228P, kappa, V domains shown)
VH: QVQLVESGGGVVQPGRSLRLDCKASGITFSNSGMHWVRQAPGKGLEWVAVIWYDGSKRYYADSVKGRFTISRDNSKNTLFLQMNSLRAEDTAVYYCATNDDYWGQGTLVTVSS
VL: EIVLTQSPATLSLSPGERATLSCRASQSVSSYLAWYQQKPGQAPRLLIYDASNRATGIPARFSGSGSGTDFTLTISSLEPEDFAVYYCQQSSNWPRTFGQGTKVEIKR
notes: also called positive control
B10: no binding (tested: about 2 nM) [14]; no binding (tested: about 2 nM) [15]; no binding (tested: about 2 nM) [16]. The binding result [17] was “no binding (tested: about 2 nM)” and the EC50 [18] was 0.692 nM.

B11: Rituximab analog (antibody, human IgG1, kappa)
heavy: not shown
light: QIVLSQSPAILSASPGEKVTMTCRASSSVSYIHWFQQKPGSSPKPWIYATSNLASGVPVRFSGSGSGTSYSLTISRVEAEDAATYYCQQWTSNPPTFGGGTKLEIKRTVAAPSVFIFPPSDEQLKSGTASVVCLLNNFYPREAKVQWKVDNALQSGNSQESVTEQDSKDSTYSLSSTLTLSKADYEKHKVYACEVTHQGLSSPVTKSFNRGEC
notes: Wild type IgG1 heavy chain constant region; also called positive control of the FcγRI ELISA
B11: binds [19].
